This is an account of results in the supplement of paper PMC9170038.

The data set concerns K4 kissing-loop RNA reporter. Description: apparent KD of K4 kissing-loop reporter; higher = weaker reporter binding. Conditions: Eterna round: R107. The method, then: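 RNA-MaP round R107: designed RNA switches with theophylline, tryptophan, arginine or FMN aptamers are transcribed on-chip within common flanks. They are titrated with a labelled K4 kissing-loop RNA reporter in RNA-MaP buffer (100 mM Tris pH 7.5, 80 mM KCl, 4 mM MgCl2), without ligand or with the indicated ligand. Median apparent KD per design.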

[1] abbreviates: input ligand: theophylline 20 uM.
Where [2] appears, read: input ligand: tryptophan 2.4 mM.
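Note: bound reporter read as fluorescence of individual clusters on recovered sequencing chips by microscopy, with normalized cluster intensities fitted with a binding model.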

On to “GGUGUUGUUUGUGCCGUCUUCCUCGUUCCUCGAGGACCGGUACGGCCGCCACUCGAGUGAUGUUUGGGUAGCGAUCCCUGUUAGU [Bdazzled - #10 Exc. Tryptophan A]”, for which the “apparent KD of K4 kissing-loop reporter” value by setting is: (input ligand: FMN 200 uM) 695 nM; (input ligand: arginine 13.2 mM) 541 nM; (input ligand: none) 647 nM; under setting [1], 602 nM; under setting [2], 582 nM.
In the case of “GGUAGCAUGGCGGCCGCCACUUCAAUUGGAGUGAUGUUCCAAGGCAUCGCGAAAGCGAUGCCAGGAAGGACCGGGCCAUGCUACC”, the “apparent KD of K4 kissing-loop reporter” value reads like this: (input ligand: FMN 200 uM) 271 nM; (input ligand: arginine 13.2 mM) 224 nM; (input ligand: none) 306 nM; under setting [1], 222 nM; under setting [2], 112 nM.
On to “CACGGUUAUACGGCCGCCACUGAUUGCGUUGCAGUGAUGUUGCACGCGUCCGACUACACCUCAUUCAGGACCGGGUAGACAUGCA [theeternabot_exclusion_KL_Trp_B_11]”, for which the “apparent KD of K4 kissing-loop reporter” value worked out at 238 nM (input ligand: FMN 200 uM); 163 nM (input ligand: arginine 13.2 mM); 230 nM (input ligand: none); 208 nM under setting [1]; 246 nM under setting [2].
Turning to “UAAGCUCUGACGGCCGCCACUGCACGUGAAUCAGUGGUGGCUAACAUGAGUGAUGUUCAUGUAAGCAGGACCGGGUCAGAGCUAA [KL-XTryp-B14 #analogue]”, the “apparent KD of K4 kissing-loop reporter” value worked out at 112 nM (input ligand: FMN 200 uM); 89.7 nM (input ligand: arginine 13.2 mM); 93.4 nM (input ligand: none); 93.6 nM under setting [1]; 109 nM under setting [2].
For the sequence “AGCUGUGGCAGAAGGAGCGACAGUUAUUCUGAUAGUACUCUGAGUGAUGUUCAGAACGACUGUCAGGUAGGUCGCUGUCACAGCU [#01 K4 Arginine B Exclusion]”, the “apparent KD of K4 kissing-loop reporter” value came to 172 nM (input ligand: FMN 200 uM); 159 nM (input ligand: arginine 13.2 mM); 175 nM (input ligand: none); 153 nM under setting [1]; 169 nM under setting [2].
Regarding “AAUUUAGUGACGGCCGCCACUAGGGUGAUUUUUUUGUUUGAGUGAUGUUUUGAUGUUUGAUUUUGUAGGACCGGGUUAGGUGAUG [cccmullin]”, the “apparent KD of K4 kissing-loop reporter” value (input ligand: FMN 200 uM) amounted to 327 nM; the “apparent KD of K4 kissing-loop reporter” value (input ligand: arginine 13.2 mM) came to 310 nM; the “apparent KD of K4 kissing-loop reporter” value (input ligand: none) was 343 nM; the “apparent KD of K4 kissing-loop reporter” value under setting [1] came to 364 nM; the “apparent KD of K4 kissing-loop reporter” value under setting [2] was found to be 262 nM.
Regarding “GGAUCCACCAGUGAUGUUGGAGAAAACUCUAAGGAUAUGACGAAAGUCAGAAGGUAGUAGACUGGACAAAGUCCGGUCGGAUCCA [FmnA 23 U30+A56]”, the “apparent KD of K4 kissing-loop reporter” value amounted to 583 nM (input ligand: FMN 200 uM); 376 nM (input ligand: arginine 13.2 mM); 1190 nM (input ligand: none); 661 nM under setting [1]; 484 nM under setting [2].
As for “CCGAGCCUGACGUAAGUCAGGCUCUGCGAGCGAGGACCGGUACGGCCGCCACUCGGUGCAGUGAUGUUGCAUGGCCGCAAGGCCG [#2 Exclusion - Tryptophan A Attempt #23 (HarryS)]”, the “apparent KD of K4 kissing-loop reporter” value (input ligand: FMN 200 uM) was 293 nM; the “apparent KD of K4 kissing-loop reporter” value (input ligand: arginine 13.2 mM) was determined as 274 nM; the “apparent KD of K4 kissing-loop reporter” value (input ligand: none) turned out to be 235 nM; the “apparent KD of K4 kissing-loop reporter” value under setting [1] stood at 235 nM; the “apparent KD of K4 kissing-loop reporter” value under setting [2] is 351 nM.
Take “CGUAGUUGGGCGGCCGCCACUUGAACAGCUUUGCCAAAGGCAGAGCUCUAGAGUGAUGUUCUGGCAAGGACCGGGUCCAACUACA [#02 K4 Tryptophan B Same State]”: the “apparent KD of K4 kissing-loop reporter” value was determined as 1270 nM (input ligand: FMN 200 uM); 777 nM (input ligand: arginine 13.2 mM); 1240 nM (input ligand: none); 822 nM under setting [1]; 423 nM under setting [2].
Regarding “UGUCAUUGGUCGGCCGCCACUUCAUAAAGAGUGAUGUUCUUAAAGACGGAUCGAAAGAUCUGUCGAAGGACCGGGACCGAUGACU [FiskerMod 8 - Jieux - Same State - Tryptophan B]”, the “apparent KD of K4 kissing-loop reporter” value turned out to be 1330 nM (input ligand: FMN 200 uM); 1080 nM (input ligand: arginine 13.2 mM); 1500 nM (input ligand: none); 927 nM under setting [1]; 196 nM under setting [2].
For “GCGCGUCAUGGCGGCGGUGACUACGCCGAUACCAGCCGGGAAACCGGCCCUUGGCAGCGGCGCGCCGGAGUGAUGUUCCGACAGA [#2 Exclusion - Theophylline A Attempt #4 (HarryS)]”, the “apparent KD of K4 kissing-loop reporter” value is, setting by setting: (input ligand: FMN 200 uM) 226 nM; (input ligand: arginine 13.2 mM) 275 nM; (input ligand: none) 275 nM; under setting [1], 370 nM; under setting [2], 214 nM.
Take “GGUGACGGCCAGGAGUGAUGUAUAGAAUAGCGAGGACCGGUACGGCCGCCACUCGUGAAGAAAAGGGAGUGAUGUUCCGUAAUGU [Kazoo]”: the “apparent KD of K4 kissing-loop reporter” value stood at 87.8 nM (input ligand: FMN 200 uM); 122 nM (input ligand: arginine 13.2 mM); 75.3 nM (input ligand: none); 126 nM under setting [1]; 49.5 nM under setting [2].
Consider “AGUGAUGUGGGAAGGAGCGGUAUAAGAAUUCAGUGAUGUUGAAGUGUUGCAGAAAUAAAAGGCCAGGUAGGUCGCCUAGAUGUUA [KL-XARG B29]”, for which the “apparent KD of K4 kissing-loop reporter” value is, setting by setting: (input ligand: FMN 200 uM) 347 nM; (input ligand: arginine 13.2 mM) 384 nM; (input ligand: none) 454 nM; under setting [1], 519 nM; under setting [2], 243 nM.
With “AGGAUGUAGUGAUGUUAUAUAAGAAGUAGACGAGGACCGGUACGGCCGCCACUCGAAACGGCUACUAGCGCGUUGCGAGGUGUGC [ExTryptoA.Cg]”, the “apparent KD of K4 kissing-loop reporter” value runs as follows: (input ligand: FMN 200 uM) 576 nM; (input ligand: arginine 13.2 mM) 435 nM; (input ligand: none) 476 nM; under setting [1], 468 nM; under setting [2], 326 nM.
Regarding “GUCUGAUGCGUUGAUACCAGUCCUUCAGUGAUGUUGCAAGCGCGGCCUAUCAAGCAAUCCGACCCUUGGCAGCAAUAGGUCCGAA [theeternabot_exclusion_KL_Theo_B_9]”, the “apparent KD of K4 kissing-loop reporter” value by setting is: (input ligand: FMN 200 uM) 892 nM; (input ligand: arginine 13.2 mM) 568 nM; (input ligand: none) 850 nM; under setting [1], 872 nM; under setting [2], 661 nM.
The corresponding values for “AGUCCACUCUAAAGAGUGGACCUAAGGGAUACCAGUGAUGUUGGUCACCCUUGGCAGCCCACUGUCAUCGAUAAAGAUGGCAGGA” are 128 nM, 112 nM, 116 nM, 119 nM and 117 nM.
As for “UCCUCGAAUCGACCUCGAAAGAGGAUGGAUACCAGUCUUGAUAAAGACCCUUGGCAGCCAGUGAUGUUGGAACGAGGUAAAUAAA [#SwitchBubble 19 #K4Late]”, the “apparent KD of K4 kissing-loop reporter” value was 531 nM (input ligand: FMN 200 uM); 365 nM (input ligand: arginine 13.2 mM); 571 nM (input ligand: none); 535 nM under setting [1]; 359 nM under setting [2].
